Consider two substances from PMC2974046.

Assay in all cases: purified protein
Data set [1] concerns NC(=O)/C=C/C(=O)NC[C@H](N)C(=O)O. In kind it is biochemical, Pantoea agglomerans. Conditions: adenylation (A) domain, ATP, Mg2+, pH 7.5, room temperature.
The subject of data set [2] is NC(=O)[C@@H]1O[C@H]1C(=O)NC[C@H](N)C(=O)O. Conditions: 5 mM L-valine, 10 mM ATP, 12 mM MgCl2, HEPES pH 8, room temperature.
Data set [3] deals with NC(=O)/C=C/C(=O)NC[C@H](N)C(=O)O. Conditions: 5 mM L-valine, 10 mM ATP, 12 mM MgCl2, HEPES pH 8, room temperature.

DdaD (Pantoea agglomerans): in data set [1], the Km – broadly, the substrate concentration at which the rate is half of its maximum – stood at 420 ± 80 µM and the turnover number (kcat) (usually the maximal rate divided by the concentration of active sites) came out at 1.07 ± 0.083 s⁻¹.
With DdaF (Pantoea agglomerans), in data set [2], the Km is 53 ± 7 µM, the kcat was 3.02 ± 0.117 s⁻¹ and the kcat/Km (commonly the second-order rate constant that governs catalysis at low substrate concentration) is 56700 M⁻¹ s⁻¹. In addition, in data set [3], the Km amounted to 72 ± 34 µM, the kcat was 0.35 ± 0.05 s⁻¹ and the kcat/Km was determined as 4830 M⁻¹ s⁻¹.
